Results from patent US20150033370.

Tested on: TALEN-AAVS1 (goat AAVS1 TALEN pair; left and right monomers not described separately) (synthetic construct)
Experiment: cell_activity
Details: cleavage/targeting efficiency in transfected goat fibroblasts; 6 of 8 puromycin-resistant clones correctly targeted with donor; half-sites highlighted only in …

## TCCGGCTGTCTCCCTACCAGGGACACGGCAGGGCGGTGGTCAGCTCTCCTGGA (double strand) [goat AAVS1 TALEN target]
  activity: 2%
